Measured values reported in patent publication US20240117018A1.

Experiments:
Test in all cases: cell-based or functional assay
[1] = target: HIV-1 Env of pseudovirus 0815.v3.c3 (HIV-1)
[2] = target: HIV-1 Env of pseudovirus 191084 B7-19 (HIV-1)
[3] = target: HIV-1 Env of pseudovirus 191955_A11 (HIV-1)
[4] = target: HIV-1 Env of pseudovirus 211-9 (HIV-1)
[5] = target: HIV-1 Env of pseudovirus 231965.c01 (HIV-1)
[6] = target: HIV-1 Env of pseudovirus 231966.c02 (HIV-1)
[7] = target: HIV-1 Env of pseudovirus 235-47 (HIV-1)
[8] = target: HIV-1 Env of pseudovirus 263-8 (HIV-1)
[9] = target: HIV-1 Env of pseudovirus 3016.v5.c45 (HIV-1)
[10] = target: HIV-1 Env of pseudovirus 3103.v3.c10 (HIV-1)
[11] = target: HIV-1 Env of pseudovirus 3301.v1.c24 (HIV-1)
[12] = target: HIV-1 Env of pseudovirus 6041.v3.c23 (HIV-1)
[13] = target: HIV-1 Env of pseudovirus 620345.c01 (HIV-1)
[14] = target: HIV-1 Env of pseudovirus 6480.v4.c25 (HIV-1)
[15] = target: HIV-1 Env of pseudovirus 6540.v4.c1 (HIV-1)
[16] = target: HIV-1 Env of pseudovirus 6545.v4.c1 (HIV-1)
[17] = target: HIV-1 Env of pseudovirus 6952.v1.c20 (HIV-1)
[18] = target: HIV-1 Env of pseudovirus 9004SS_A3_4 (HIV-1)
[19] = target: HIV-1 Env of pseudovirus 928-28 (HIV-1)
[20] = target: HIV-1 Env of pseudovirus A07412M1.vrc12 (HIV-1)
[21] = target: HIV-1 Env of pseudovirus BJOX009000.02.4 (HIV-1)
[22] = target: HIV-1 Env of pseudovirus BJOX015000.11.5 (HIV-1)
[23] = target: HIV-1 Env of pseudovirus BJOX025000.01.1 (HIV-1)
[24] = target: HIV-1 Env of pseudovirus BJOX028000.10.3 (HIV-1)
[25] = target: HIV-1 Env of pseudovirus C3347.c11 (HIV-1)
[26] = target: HIV-1 Env of pseudovirus C4118.c09 (HIV-1)
[27] = target: HIV-1 Env of pseudovirus P0402_c2_11 (HIV-1)
[28] = target: HIV-1 Env of pseudovirus P1981_C5_3 (HIV-1)
[29] = target: HIV-1 Env of pseudovirus R1166.c01 (HIV-1)
[30] = target: HIV-1 Env of pseudovirus R2184.c04 (HIV-1)
[31] = target: HIV-1 Env of pseudovirus R3265.c06 (HIV-1)
[32] = target: HIV-1 Env of pseudovirus T255-34 (HIV-1)
[33] = target: HIV-1 Env of pseudovirus T257-31 (HIV-1)
[34] = target: HIV-1 Env of pseudovirus T278-50 (HIV-1)
[35] = target: HIV-1 Env of pseudovirus X1254_c3 (HIV-1)
[36] = target: HIV-1 Env of pseudovirus X2131_C1_B5 (HIV-1)

N49P9.1 (antibody)
neutralization IC50 [1]: 0.012 µg/mL
neutralization IC80 [1]: 0.041 µg/mL
neutralization MPI [1]: 100
neutralization IC50 [2]: 0.097 µg/mL
neutralization IC80 [2]: 0.259 µg/mL
neutralization MPI [2]: 100
neutralization IC50 [3]: > 50 µg/mL
neutralization IC80 [3]: > 50 µg/mL
neutralization MPI [3]: 26
neutralization IC50 [4]: 0.17 µg/mL
neutralization IC80 [4]: 0.579 µg/mL
neutralization MPI [4]: 100
neutralization IC50 [5]: 0.474 µg/mL
neutralization IC80 [5]: 2.24 µg/mL
neutralization MPI [5]: 100
neutralization IC50 [6]: 0.067 µg/mL
neutralization IC80 [6]: 0.237 µg/mL
neutralization MPI [6]: 100
neutralization IC50 [7]: 0.045 µg/mL
neutralization IC80 [7]: 0.352 µg/mL
neutralization MPI [7]: 98
neutralization IC50 [8]: 0.049 µg/mL
neutralization IC80 [8]: 0.17 µg/mL
neutralization MPI [8]: 100
neutralization IC50 [9]: 0.076 µg/mL
neutralization IC80 [9]: 0.223 µg/mL
neutralization MPI [9]: 100
neutralization IC50 [10]: > 50 µg/mL
neutralization IC80 [10]: > 50 µg/mL
neutralization MPI [10]: 45
neutralization IC50 [11]: 0.059 µg/mL
neutralization IC80 [11]: 0.178 µg/mL
neutralization MPI [11]: 100
neutralization IC50 [12]: 0.282 µg/mL
neutralization IC80 [12]: 6.78 µg/mL
neutralization MPI [12]: 90
neutralization IC50 [13]: > 50 µg/mL
neutralization IC80 [13]: > 50 µg/mL
neutralization MPI [13]: 7
neutralization IC50 [14]: 0.03 µg/mL
neutralization IC80 [14]: 0.082 µg/mL
neutralization MPI [14]: 100
neutralization IC50 [15]: > 50 µg/mL
neutralization IC80 [15]: > 50 µg/mL
neutralization MPI [15]: 30
neutralization IC50 [16]: > 50 µg/mL
neutralization IC80 [16]: > 50 µg/mL
neutralization MPI [16]: 6
neutralization IC50 [17]: 0.119 µg/mL
neutralization IC80 [17]: 0.389 µg/mL
neutralization MPI [17]: 100
neutralization IC50 [18]: 0.323 µg/mL
neutralization IC80 [18]: 1.13 µg/mL
neutralization MPI [18]: 100
neutralization IC50 [19]: 0.163 µg/mL
neutralization IC80 [19]: 0.695 µg/mL
neutralization MPI [19]: 100
neutralization IC50 [20]: 0.189 µg/mL
neutralization IC80 [20]: 0.947 µg/mL
neutralization MPI [20]: 100
neutralization IC50 [21]: 0.965 µg/mL
neutralization IC80 [21]: 3.93 µg/mL
neutralization MPI [21]: 100
neutralization IC50 [22]: 0.068 µg/mL
neutralization IC80 [22]: 0.478 µg/mL
neutralization MPI [22]: 100
neutralization IC50 [23]: 0.131 µg/mL
neutralization IC80 [23]: 0.67 µg/mL
neutralization MPI [23]: 100
neutralization IC50 [24]: 0.04 µg/mL
neutralization IC80 [24]: 0.2 µg/mL
neutralization MPI [24]: 100
neutralization IC50 [25]: 0.029 µg/mL
neutralization IC80 [25]: 0.083 µg/mL
neutralization MPI [25]: 100
neutralization IC50 [26]: 0.062 µg/mL
neutralization IC80 [26]: 0.218 µg/mL
neutralization MPI [26]: 100
neutralization IC50 [27]: 0.06 µg/mL
neutralization IC80 [27]: 0.163 µg/mL
neutralization MPI [27]: 100
neutralization IC50 [28]: 0.469 µg/mL
neutralization IC80 [28]: 1.52 µg/mL
neutralization MPI [28]: 100
neutralization IC50 [29]: 0.073 µg/mL
neutralization IC80 [29]: 0.232 µg/mL
neutralization MPI [29]: 100
neutralization IC50 [30]: 0.019 µg/mL
neutralization IC80 [30]: 0.057 µg/mL
neutralization MPI [30]: 100
neutralization IC50 [31]: 0.469 µg/mL
neutralization IC80 [31]: 1.62 µg/mL
neutralization MPI [31]: 100
neutralization IC50 [32]: 0.092 µg/mL
neutralization IC80 [32]: 0.286 µg/mL
neutralization MPI [32]: 100
neutralization IC50 [33]: 0.508 µg/mL
neutralization IC80 [33]: 1.82 µg/mL
neutralization MPI [33]: 100
neutralization IC50 [34]: > 50 µg/mL
neutralization IC80 [34]: > 50 µg/mL
neutralization MPI [34]: 5
neutralization IC50 [35]: 0.101 µg/mL
neutralization IC80 [35]: 0.278 µg/mL
neutralization MPI [35]: 100
neutralization IC50 [36]: 0.143 µg/mL
neutralization IC80 [36]: 0.476 µg/mL
neutralization MPI [36]: 100
